Holding throughout (details): both partners purified
Experiment [1] deals with T1, human P-cadherin EC12 K14E (residues 1-213) (Homo sapiens, UniProt P22223, point mutant).
T1 construct: human P-cadherin, residues 1-213 with K14E; numbers count on: the mature protein; also called strand-swap dimer construct; source: E. coli Rosetta2 (DE3), purified (Ni-NTA, SUMO tag cleaved with Ulp1, SEC)
The experiment can be described thus: ITC; iTC200; antibody in the cell (15-30 μM), P-cadherin construct in the syringe (150-300 μM); 15 °C; one-site binding model. In general terms: Isothermal titration calorimetry measures the heat released or taken up as one component is titrated into another.

The target in experiment [2] is T2, human P-cadherin MEC12 (additional Met + residues 1-213) (Homo sapiens).
T2 construct: numbers count on: the mature protein; also called X-dimer construct; source: E. coli Rosetta2 (DE3), purified (Ni-NTA, SUMO tag cleaved with Ulp1, SEC)
The description is as above.

The target of experiment [3] is T3, human P-cadherin MEC12 K14E (additional Met + residues 1-213) (Homo sapiens, point mutant).
T3 construct: human P-cadherin, residues 1-213 with K14E; numbers count on: the mature protein; also called monomer construct; source: E. coli Rosetta2 (DE3), purified (Ni-NTA, SUMO tag cleaved with Ulp1, SEC)
The description is as above.

The target of experiment [4] is T4, human P-cadherin MEC1 (additional Met + residues 1-129) (Homo sapiens).
T4 construct: numbers count on: the mature protein; source: E. coli Rosetta2 (DE3), purified (Ni-NTA, SUMO tag cleaved with Ulp1, SEC)
T4 chain: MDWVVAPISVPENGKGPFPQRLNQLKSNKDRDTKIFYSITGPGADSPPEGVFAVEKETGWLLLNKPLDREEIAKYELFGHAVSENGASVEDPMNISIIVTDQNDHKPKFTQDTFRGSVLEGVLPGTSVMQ
The experiment can be described thus: SPR; Biacore T200; MEC1 immobilised on a CM5 chip by amine coupling (~250 RU); scFv as analyte, 0.49-62.5 nM; 25 °C; 10 mM HEPES, 150 mM NaCl, 3 mM CaCl2, pH 7.5, 0.05% Tween-20; global fitting. Background: In SPR one partner is held on a chip, and binding of the other changes the refractive index at the surface.

Experiment [5] addresses T5, human E-cadherin EC12 (Homo sapiens, UniProt P12830).
T5 construct: human E-cadherin, domains EC1-EC2; also called E-cad EC12; source: E. coli Rosetta2 (DE3), purified (Ni-NTA, SUMO tag cleaved with Ulp1, SEC)
The experiment can be described thus: SEC; the solution left in the ITC cell (antibody 25 μM titrated with human E-cadherin EC12 250 μM at 30 °C) injected on Superose 12 10/300 GL; 0.5 mL/min; 25 °C; 10 mM HEPES, 150 mM NaCl, 3 mM CaCl2, pH 7.5. Background: SEC sorts molecules by how far they enter the pores of the column.

The target in experiment [6] is T6, human P-cadherin MEC1 (Homo sapiens, UniProt P22223).
T6 construct: additional Met before the N-terminus; P-cadherin (cadherin-3), human, extracellular domain EC1; source: E. coli Rosetta2 (DE3), SUMO fusion, Ni-NTA, SUMO cleaved with Ulp1, SEC
The experiment can be described thus: SPR; MEC1 immobilised on a CM5 chip by amine coupling (~250 RU); antibodies as analyte 0.49-62.5 nM; 25 °C; 10 mM HEPES, 150 mM NaCl, 3 mM CaCl2, pH 7.5, 0.05% Tween-20; global fitting.

In experiment [7] the target is T7, human E-cadherin EC12 (Homo sapiens, UniProt P12830).
T7 construct: E-cadherin (cadherin-1), human, extracellular domains EC1-EC2; source: E. coli Rosetta2 (DE3), SUMO fusion, Ni-NTA, SUMO cleaved with Ulp1, SEC
The experiment can be described thus: ITC + SEC; antibodies (25 μM) in the cell titrated with human E-cadherin EC12 (250 μM) in the syringe, 30 °C; the solution left in the cell was then run on Superose 12 in 10 mM HEPES, 150 mM NaCl, 3 mM CaCl2, pH 7.5.

In experiment [8] the target is T1, human P-cadherin EC12 K14E (residues …). The experiment can be described thus: SPR; scFv (100 nM) captured on anti-His6-tag antibody immobilised on a CM5 chip; P-cadherin construct as analyte (1.25-20 nM strand-swap dimer, 6.25-100 nM monomer); global fitting; the paper puts the lower KD for the strand-swap dimer down to an avidity effect.
For experiment [9], the target named is T3, human P-cadherin MEC12 K14E (additional …). The experiment is described as above.
Experiment [10] concerns the target T8, human P-cadherin MEC12 (human, UniProt P22223).
T8 construct: additional Met at the N-terminus of EC12; P-cadherin (cadherin-3), human, extracellular domains EC1-EC2; Fast exchange between monomer and X-dimer; also called X-dimer construct; source: E. coli Rosetta2 (DE3), SUMO fusion, Ni-NTA, SUMO cleaved with Ulp1, SEC
The experiment can be described thus: ITC; antibodies (15-30 μM) in the cell titrated with cadherins (150-300 μM); 15 °C; one-site binding model.

T3 sequence (chain, as listed by the source point mutant | K14E K14E): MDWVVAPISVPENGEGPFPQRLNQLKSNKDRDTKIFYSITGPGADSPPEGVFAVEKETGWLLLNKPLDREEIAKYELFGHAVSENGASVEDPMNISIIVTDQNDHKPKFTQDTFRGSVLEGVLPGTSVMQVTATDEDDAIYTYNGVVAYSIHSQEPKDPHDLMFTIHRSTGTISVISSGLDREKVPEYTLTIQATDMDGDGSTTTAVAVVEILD

B1: TSP11 single-chain Fv (anti-human P-cadherin antibody) (scFv, V domains shown)
VH: QVQLQQPGTELVKPGASVKLSCKASGYTFTRYWINWVKQRPQGGLEWIGNIYPGSNITNYNEKFKNKATLTVDTSSNTAYMQLSSLTSDDSAVYYCAREGIYDGYFPLFPYWGQGTLVTVSA
VL: ENVLTQSPAIMAASPGEKVTMTCSASSSVSSGNFHWYQQKPGTSPKLWIYRTSNLASGVPARFSGSGSGTSYSLTISSMEAEDAATYYCQQWSGYPWTFGGGTKLEIK
notes: VH of TSP11; flexible (Gly4-Ser)3 peptide linker between VH and VL; VL of TSP11; Construct pelB-VH-GS-linker-VL-His6 in pRA2
In the case of B1, the results for the “stoichiometry N” value in [1], in experiment [2] and in [3] were 0.61, 0.71 and 0.61, respectively. Also, in [4], the Kd was determined as 14 nM. Further, the koff in experiment [4] amounted to 0.0039 s⁻¹. The on-rate (kon) in experiment [4] was 280000 M⁻¹ s⁻¹. Further, in experiment [5], the binding result is listed as “no binding”.

B2: TSP11 (anti-human P-cadherin antibody, scFv format) (scFv, V domains shown)
VH: QVQLQQPGTELVKPGASVKLSCKASGYTFTRYWINWVKQRPQGGLEWIGNIYPGSNITNYNEKFKNKATLTVDTSSNTAYMQLSSLTSDDSAVYYCAREGIYDGYFPLFPYWGQGTLVTVSA
VL: ENVLTQSPAIMAASPGEKVTMTCSASSSVSSGNFHWYQQKPGTSPKLWIYRTSNLASGVPARFSGSGSGTSYSLTISSMEAEDAATYYCQQWSGYPWTFGGGTKLEIK
notes: VH of TSP11 (antibody from mice immunised with human P-cadherin EC1-EC5); flexible (Gly4-Ser)3 peptide linker; VL of TSP11; Construct pelB-VH-GS-linker-VL-His6 in pRA2; not shown: His6, C-terminal, kept
In turn, B2 gave a Kd in experiment [6] of roughly 10 nM. For the same molecule, the binding result in [7] is recorded as “no binding”.

B3: TSP7 single-chain Fv (anti-human P-cadherin antibody) (scFv, V domains shown)
VH: QVQLQESGPELVKPGASVKMSCKASGYSFTAYNMHWVKQSHGKSLEWIGFIDPYSGIITYNQTFKGKATLTVDKSSSTAYMQLNSLTSEDSAVYYCARRGYYDGGFDYWGQGTTLTVSS
VL: DIQMTQTTSSLSASLGDRVTISCRASQDITNYLNWYQQKPDGTVKLLIYYTSRLHSGVPSRFSGSGSGTDYSLTISNLEQEDIATYFCQQDSKHPRTFGGGTKLEIK
notes: VH of TSP7; flexible (Gly4-Ser)3 peptide linker between VH and VL; VL of TSP7; Construct pelB-VH-GS-linker-VL-His6 in pRA2; Residue numbers run through the whole scFv (Asp229 and Arg234 lie in the VL); also called TSP7 (WT); TSP7 WT; not shown: His6, C-terminal, kept
On to B3, for which the figures for the “stoichiometry N” value in [1] and in [3] were 0.71 and 0.74, respectively. The Kd in experiment [4] stood at 8.7 nM; in [8] it was 0.24 nM; in [9], 63 nM. Moreover, the results for the koff in experiment [4], in experiment [8] and in experiment [9] were 0.026 s⁻¹, 0.00015 s⁻¹ and 0.03 s⁻¹, respectively. Further, the on-rate constant (kon) is 3e+06 M⁻¹ s⁻¹ in [4], 620000 M⁻¹ s⁻¹ in [8] and 480000 M⁻¹ s⁻¹ in experiment [9]. In addition, the binding result in experiment [5] was “no binding”.

B4: TSP7 (anti-human P-cadherin antibody, scFv format) (scFv, V domains shown)
VH: QVQLQESGPELVKPGASVKMSCKASGYSFTAYNMHWVKQSHGKSLEWIGFIDPYSGIITYNQTFKGKATLTVDKSSSTAYMQLNSLTSEDSAVYYCARRGYYDGGFDYWGQGTTLTVSS
VL: DIQMTQTTSSLSASLGDRVTISCRASQDITNYLNWYQQKPDGTVKLLIYYTSRLHSGVPSRFSGSGSGTDYSLTISNLEQEDIATYFCQQDSKHPRTFGGGTKLEIK
notes: VH of TSP7 (antibody from mice immunised with human P-cadherin EC1-EC5); flexible (Gly4-Ser)3 peptide linker; VL of TSP7; Construct pelB-VH-GS-linker-VL-His6 in pRA2; also called TSP7 WT; not shown: His6, C-terminal, kept
On to B4, for which, in experiment [10], the “stoichiometry N” value was determined as 1.5. For the same molecule, the Kd in experiment [6] is roughly 10 nM. Moreover, in experiment [7], the binding result is recorded as “no binding”.

B5: TSP7 S77R single-chain Fv (scFv, V domains shown)
VH: QVQLQESGPELVKPGASVKMSCKASGYSFTAYNMHWVKQSHGKSLEWIGFIDPYSGIITYNQTFKGKATLTVDKSSRTAYMQLNSLTSEDSAVYYCARRGYYDGGFDYWGQGTTLTVSS
VL: DIQMTQTTSSLSASLGDRVTISCRASQDITNYLNWYQQKPDGTVKLLIYYTSRLHSGVPSRFSGSGSGTDYSLTISNLEQEDIATYFCQQDSKHPRTFGGGTKLEIK
notes: as the VH of Dm1 (TSP7, PDB 5JYL) with S77R; flexible (Gly4-Ser)3 peptide linker between VH and VL; as the VL of Dm1 (TSP7, PDB 5JYL); source: purified to homogeneity in a soluble monomeric form; not shown: His6, C-terminal, kept
B5: in experiment [8], the Kd came to 0.53 nM, the koff was found to be 0.00039 s⁻¹ and the on-rate (kon) worked out at 730000 M⁻¹ s⁻¹. Besides, in experiment [9], the Kd stood at 71 nM, the koff is 0.032 s⁻¹ and the kon stood at 450000 M⁻¹ s⁻¹.

By stoichiometry N is commonly meant the number of molecules, sites or subunits per partner or assembly. A word on the koff: it is a measure of how fast the partners let go of each other. Broadly, the kon is the rate constant with which the complex forms.

Source of the values: PMC5206748, “Disruption of cell adhesion by an antibody targeting the cell-adhesive intermediate (X-dimer) of human P-cadherin” (Scientific Reports, 2017).
